The record followed here is patent US20070004636.

The subject of data set [1] is human hepatocyte nuclear factor 1α (HNF-1α), His and Xpress-tagged at the N-terminus.
The test system of data set [2] is T1, human hepatocyte nuclear factor 4α (HNF-4α), His and Xpress-tagged at the N-terminus.
T1 sequence: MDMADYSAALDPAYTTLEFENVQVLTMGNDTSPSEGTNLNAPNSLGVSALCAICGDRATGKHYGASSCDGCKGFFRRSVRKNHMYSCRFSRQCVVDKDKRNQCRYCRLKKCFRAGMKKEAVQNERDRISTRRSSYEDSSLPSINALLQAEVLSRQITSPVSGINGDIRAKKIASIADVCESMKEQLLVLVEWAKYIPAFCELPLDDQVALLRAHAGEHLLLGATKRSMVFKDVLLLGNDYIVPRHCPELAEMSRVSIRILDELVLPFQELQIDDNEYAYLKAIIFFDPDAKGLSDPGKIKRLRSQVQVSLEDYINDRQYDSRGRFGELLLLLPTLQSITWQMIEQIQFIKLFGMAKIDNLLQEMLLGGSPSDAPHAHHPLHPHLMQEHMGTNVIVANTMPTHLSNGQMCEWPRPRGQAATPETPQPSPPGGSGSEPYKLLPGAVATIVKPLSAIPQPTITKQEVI

Data set [3] relates to human insulin promoter factor 1 (IPF-1), His and Xpress-tagged at the N-terminus.
human insulin promoter factor 1 (IPF-1), His and Xpress-tagged at the N-terminus, sequence (chain, as listed by the source): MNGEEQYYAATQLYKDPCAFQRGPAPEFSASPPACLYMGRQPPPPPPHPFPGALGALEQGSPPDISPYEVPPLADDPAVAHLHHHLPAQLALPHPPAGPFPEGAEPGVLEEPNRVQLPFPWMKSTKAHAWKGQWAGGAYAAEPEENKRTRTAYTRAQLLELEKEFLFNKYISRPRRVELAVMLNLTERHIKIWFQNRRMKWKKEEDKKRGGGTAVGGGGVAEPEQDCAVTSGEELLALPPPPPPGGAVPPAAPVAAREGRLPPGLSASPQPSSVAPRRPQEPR

human hepatocyte nuclear factor 1α (HNF-1α), His and Xpress-tagged at the N-terminus, sequence (chain, as listed by the source): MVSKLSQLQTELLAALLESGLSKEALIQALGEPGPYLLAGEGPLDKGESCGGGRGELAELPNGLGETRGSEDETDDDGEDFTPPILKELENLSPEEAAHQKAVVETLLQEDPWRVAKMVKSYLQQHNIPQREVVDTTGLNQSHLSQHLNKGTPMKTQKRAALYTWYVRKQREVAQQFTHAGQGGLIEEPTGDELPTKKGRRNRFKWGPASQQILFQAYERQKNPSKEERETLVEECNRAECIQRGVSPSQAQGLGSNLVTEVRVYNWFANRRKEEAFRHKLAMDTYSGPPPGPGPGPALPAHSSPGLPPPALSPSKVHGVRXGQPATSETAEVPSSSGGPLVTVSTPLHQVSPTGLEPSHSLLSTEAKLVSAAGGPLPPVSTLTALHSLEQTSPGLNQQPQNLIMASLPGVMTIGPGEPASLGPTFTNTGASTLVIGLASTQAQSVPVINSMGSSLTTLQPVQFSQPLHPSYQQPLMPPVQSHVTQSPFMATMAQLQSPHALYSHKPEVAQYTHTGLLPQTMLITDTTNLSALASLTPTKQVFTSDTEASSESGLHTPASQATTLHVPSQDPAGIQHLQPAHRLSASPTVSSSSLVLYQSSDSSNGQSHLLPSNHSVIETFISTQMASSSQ

In the case of “human m-calpain coexpressed with calpain small subunit 1 in sf-9 insect cells (cell lysate)”, the “in vitro protein degradation test, Western blotting with anti-HNF-1α antibody” value in data set [1] is recorded as “the degradation of human HNF-1α by human m-calpain was observed”. In data set [2], the “in vitro protein degradation test, Western blotting with anti-HNF-4α antibody” value is “the degradation of human HNF-4α by human m-calpain was observed”. Also, in data set [3], the “in vitro protein degradation test, Western blotting with anti-IPF-1 antibody” value was “the degradation of human IPF-1 by human m-calpain was observed”.
Turning to “rabbit m-calpain, extracted from rabbit muscle (Protease, Calcium-Activated Neutral (calpain), Sigma Chemical Co.)”, the “in vitro protein degradation test, Western blotting with anti-Omni/M21 and anti-HNF-1α antibody” value in data set [1] is “the in vitro degradation of HNF-1α by each of human µ-calpain, rabbit m-calpain and rat m-calpain was observed”. The “in vitro protein degradation test, Western blotting with anti-HNF-4α and anti-Xpress antibody” value in data set [2] is “the degradation of HNF-4α by rabbit m-calpain was observed”. Also, the “in vitro protein degradation test, Western blotting with anti-Xpress and anti-IPF-1 antibody” value in data set [3] is “the in vitro degradation of IPF-1 by each of human µ-calpain, rabbit m-calpain and rat m-calpain was observed”.
